± gives the uncertainty stated by the source.
Experiment: protein stability index of a GFP-peptide fusion (yeast GPS) (PSI 1-4); higher = more stable; sorted into four equal gates, so the index is relative within each strain
In short: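 Yeast carrying a pooled library were grown to mid-log phase in leucine-free medium. Each library plasmid expresses Cherry and has a tiled 17-residue yeast protein peptide fused downstream of GFP. Cells were sorted into four equal gates by GFP/Cherry ratio, and plasmids from each gate were PCR-amplified, Illumina-sequenced and assigned to strains by barcode. Summing, across gates, the read frequency times the gate number gave each peptide's protein stability index.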

## PEGRLYQVEYAFKATNQ [SCL1]
doa10∆
  protein stability index: 2.65 ± 0.086
pdr5∆
  protein stability index: 2.88 ± 0.067
san1∆
  protein stability index: 1.78 ± 0.1
ubr1∆
  protein stability index: 2.32 ± 0.062

## PEKEASSATIVLCLTRS [YCG1]
doa10∆
  protein stability index: 2.03 ± 0.06
pdr5∆
  protein stability index: 2.5 ± 0.061
san1∆
  protein stability index: 2.1 ± 0.056
ubr1∆
  protein stability index: 2.24 ± 0.046

## PETCLFVSYFGKQIKST [YML103C/NUP188]
doa10∆
  protein stability index: 2.61 ± 0.051
pdr5∆
  protein stability index: 2.45 ± 0.039
san1∆
  protein stability index: 2.27 ± 0.062
ubr1∆
  protein stability index: 2.64 ± 0.037

## PFMLQWGIPLIKELRSK [FAS1]
doa10∆
  protein stability index: 1.69 ± 0.069
pdr5∆
  protein stability index: 1.63 ± 0.074
san1∆
  protein stability index: 1.44 ± 0.1
ubr1∆
  protein stability index: 1.58 ± 0.049

## PFTDRSVVRGNTFKVLS [COB]
doa10∆
  protein stability index: 2.25 ± 0.082
pdr5∆
  protein stability index: 2.56 ± 0.18
san1∆
  protein stability index: 2.52 ± 0.091
ubr1∆
  protein stability index: 2.37 ± 0.12

## PGFDEFQLIDMKDKEIN [CSI1]
doa10∆
  protein stability index: 3.34 ± 0.14
pdr5∆
  protein stability index: 3 ± 0.11
san1∆
  protein stability index: 3.41 ± 0.045
ubr1∆
  protein stability index: 3.45 ± 0.061

## PGNGKHASENISLSFSR [SIR4]
doa10∆
  protein stability index: 2.49 ± 0.081
pdr5∆
  protein stability index: 2.88 ± 0.062
san1∆
  protein stability index: 2.97 ± 0.061
ubr1∆
  protein stability index: 3.05 ± 0.058

## PGPRLLYENIASSPIIL [RPN10]
doa10∆
  protein stability index: 2.1 ± 0.03
pdr5∆
  protein stability index: 2.29 ± 0.038
san1∆
  protein stability index: 2.2 ± 0.057
ubr1∆
  protein stability index: 2.12 ± 0.028

## PGRLDRKIEFPSLRDRR [RPT3]
doa10∆
  protein stability index: 3.35 ± 0.044
pdr5∆
  protein stability index: 3.31 ± 0.061
san1∆
  protein stability index: 3.23 ± 0.048
ubr1∆
  protein stability index: 3.23 ± 0.039

## PGTITHGMFSSASVRAL [FAS1]
doa10∆
  protein stability index: 2.53 ± 0.063
pdr5∆
  protein stability index: 2.54 ± 0.064
san1∆
  protein stability index: 2.53 ± 0.053
ubr1∆
  protein stability index: 2.52 ± 0.037

## PGTNGKVKKPLKYLSVE [PRE7]
pdr5∆
  protein stability index: 3.5 ± 0.14
san1∆
  protein stability index: 3.15 ± 0.09
ubr1∆
  protein stability index: 3.24 ± 0.12

## PGTTSTGNNNNIATQQN [GAL11]
doa10∆
  protein stability index: 2.03 ± 0.052
pdr5∆
  protein stability index: 2.69 ± 0.081
san1∆
  protein stability index: 2.77 ± 0.085
ubr1∆
  protein stability index: 2.73 ± 0.056

## PHELTESVLPAARYDYA [QCR2]
doa10∆
  protein stability index: 2.22 ± 0.061
pdr5∆
  protein stability index: 1.92 ± 0.046
san1∆
  protein stability index: 2.09 ± 0.081
ubr1∆
  protein stability index: 1.92 ± 0.044

## PHHNQSPRNTYQCAMGK [RET1]
doa10∆
  protein stability index: 2.68 ± 0.17
pdr5∆
  protein stability index: 2.97 ± 0.14
san1∆
  protein stability index: 3 ± 0.14
ubr1∆
  protein stability index: 2.89 ± 0.24

## PHLFVNGDLTVSLCAKN [SSN2]
doa10∆
  protein stability index: 1.95 ± 0.079
pdr5∆
  protein stability index: 2.12 ± 0.081
san1∆
  protein stability index: 2.25 ± 0.18
ubr1∆
  protein stability index: 1.87 ± 0.074

## PHQSPDATRVFVNGVWH [RPB2]
doa10∆
  protein stability index: 2.84 ± 0.061
pdr5∆
  protein stability index: 3.05 ± 0.056
san1∆
  protein stability index: 2.98 ± 0.047
ubr1∆
  protein stability index: 3.15 ± 0.045

## PHTPVTRKGYIPSSKYA [YLR018C/POM34]
doa10∆
  protein stability index: 3.15 ± 0.065
pdr5∆
  protein stability index: 3.18 ± 0.089
san1∆
  protein stability index: 2.96 ± 0.082
ubr1∆
  protein stability index: 3.07 ± 0.052

## PIAASTDLPIETAAMAS [RPN1]
doa10∆
  protein stability index: 1.48 ± 0.041
pdr5∆
  protein stability index: 1.64 ± 0.052
san1∆
  protein stability index: 1.53 ± 0.06
ubr1∆
  protein stability index: 1.71 ± 0.058

## PIDAGLNEAPFPEENII [MCD1]
doa10∆
  protein stability index: 3.01 ± 0.069
pdr5∆
  protein stability index: 2.88 ± 0.054
san1∆
  protein stability index: 3.06 ± 0.033
ubr1∆
  protein stability index: 2.96 ± 0.041

## PIDNNIIFASTKLGFTF [SNU114]
doa10∆
  protein stability index: 2.63 ± 0.05
pdr5∆
  protein stability index: 2.52 ± 0.047
san1∆
  protein stability index: 2.38 ± 0.054
ubr1∆
  protein stability index: 2.67 ± 0.035

## PIFSFGKQEENGDEGDD [YOR098C/NUP1]
doa10∆
  protein stability index: 3.63 ± 0.14
pdr5∆
  protein stability index: 3.65 ± 0.17
san1∆
  protein stability index: 3.55 ± 0.096
ubr1∆
  protein stability index: 3.32 ± 0.14

## PIIATYGNRAEQFLETD [SRP68]
doa10∆
  protein stability index: 2.09 ± 0.09
pdr5∆
  protein stability index: 2.48 ± 0.063
san1∆
  protein stability index: 2.26 ± 0.14
ubr1∆
  protein stability index: 2.72 ± 0.084

## PINLQNGEEDEVALFSQ [YLR335W/NUP2]
doa10∆
  protein stability index: 3.11 ± 0.14
pdr5∆
  protein stability index: 3.39 ± 0.17
san1∆
  protein stability index: 3.22 ± 0.054
ubr1∆
  protein stability index: 3.17 ± 0.18

## PIPIPAFADRLGQYVQA [PRE10]
doa10∆
  protein stability index: 2.21 ± 0.08
pdr5∆
  protein stability index: 1.95 ± 0.062
san1∆
  protein stability index: 1.75 ± 0.11
ubr1∆
  protein stability index: 2.07 ± 0.097

## PIPSSETKADGILLETI [RRP6]
doa10∆
  protein stability index: 2.86 ± 0.1
pdr5∆
  protein stability index: 2.36 ± 0.065
san1∆
  protein stability index: 2.12 ± 0.1
ubr1∆
  protein stability index: 2.53 ± 0.052

## PISKHSKQAIYTRAAAS [RPS25B]
doa10∆
  protein stability index: 2.64 ± 0.067
pdr5∆
  protein stability index: 2.63 ± 0.054
san1∆
  protein stability index: 2.43 ± 0.061
ubr1∆
  protein stability index: 2.83 ± 0.051

## PITASTSRVFAKIISKA [YML103C/NUP188]
pdr5∆
  protein stability index: 3.02 ± 0.14
san1∆
  protein stability index: 2.53 ± 0.21

## PIVIIFRALGIIPDGEI [RPB2]
doa10∆
  protein stability index: 1.92 ± 0.048
pdr5∆
  protein stability index: 1.79 ± 0.056
san1∆
  protein stability index: 2.05 ± 0.063
ubr1∆
  protein stability index: 2.41 ± 0.039

## PKAMTDTDNECVAAWGV [HRT1]
doa10∆
  protein stability index: 3.23 ± 0.12
pdr5∆
  protein stability index: 3.48 ± 0.17
san1∆
  protein stability index: 3.03 ± 0.13
ubr1∆
  protein stability index: 3.05 ± 0.042

## PKEPRLKSQMDTSKALL [SKI6]
pdr5∆
  protein stability index: 3.17 ± 0.18

## PKSSPLKKNNYNSFPHS [SIR4]
doa10∆
  protein stability index: 2.79 ± 0.099
pdr5∆
  protein stability index: 3.08 ± 0.076
san1∆
  protein stability index: 3.07 ± 0.046
ubr1∆
  protein stability index: 3.06 ± 0.039

## PKYAKQKDKSDTYKRFK [ISW2]
doa10∆
  protein stability index: 3.12 ± 0.084
pdr5∆
  protein stability index: 3.1 ± 0.1
san1∆
  protein stability index: 3.13 ± 0.11
ubr1∆
  protein stability index: 3.23 ± 0.079

## PKYRDNLATWYHSAGGR [SSN3]
doa10∆
  protein stability index: 2.95 ± 0.066
pdr5∆
  protein stability index: 3.28 ± 0.08
san1∆
  protein stability index: 3.1 ± 0.059
ubr1∆
  protein stability index: 2.99 ± 0.059

## PLASEESLTNSNMFDNS [YGL100W/SEH1]
doa10∆
  protein stability index: 3.38 ± 0.18
pdr5∆
  protein stability index: 3.02 ± 0.19
san1∆
  protein stability index: 3.07 ± 0.12
ubr1∆
  protein stability index: 3.29 ± 0.086

## PLIQNSMRTIMKANPAL [PRP8]
doa10∆
  protein stability index: 2.4 ± 0.08
pdr5∆
  protein stability index: 2.58 ± 0.22
san1∆
  protein stability index: 1.56 ± 0.3
ubr1∆
  protein stability index: 2.25 ± 0.17

## PLKYAPHLPFSKSENPV [SWI3]
doa10∆
  protein stability index: 2.81 ± 0.076
pdr5∆
  protein stability index: 2.95 ± 0.078
san1∆
  protein stability index: 2.66 ± 0.091
ubr1∆
  protein stability index: 2.93 ± 0.074

## PLNVLQDQYKEGIKVVD [SNF2]
pdr5∆
  protein stability index: 2.46 ± 0.11
san1∆
  protein stability index: 1.78 ± 0.092
ubr1∆
  protein stability index: 2.62 ± 0.093

## PLPHRVQKSTKTFSYKR [RPL20A]
doa10∆
  protein stability index: 2.39 ± 0.058
pdr5∆
  protein stability index: 2.93 ± 0.051
san1∆
  protein stability index: 2.63 ± 0.057
ubr1∆
  protein stability index: 2.38 ± 0.043

## PLPVETPRDRRKSVFAP [SSN2]
doa10∆
  protein stability index: 2.67 ± 0.069
pdr5∆
  protein stability index: 2.31 ± 0.077
san1∆
  protein stability index: 2.99 ± 0.099
ubr1∆
  protein stability index: 2.86 ± 0.049

## PLQNNLPELWALLNFVL [SNF2]
doa10∆
  protein stability index: 2.69 ± 0.051
pdr5∆
  protein stability index: 2.64 ± 0.045
san1∆
  protein stability index: 2.56 ± 0.057
ubr1∆
  protein stability index: 2.46 ± 0.037

## PLQVARCTKIIKGNGES [RPT1]
doa10∆
  protein stability index: 2.96 ± 0.16
pdr5∆
  protein stability index: 2.96 ± 0.081
san1∆
  protein stability index: 2.72 ± 0.09
ubr1∆
  protein stability index: 2.01 ± 0.14

## PLRLRLYDNFVSKFYDK [RPN9]
doa10∆
  protein stability index: 3.17 ± 0.068
pdr5∆
  protein stability index: 3.18 ± 0.068
san1∆
  protein stability index: 3.17 ± 0.064
ubr1∆
  protein stability index: 2.96 ± 0.079

## PLSNEVFEISENNSDSN [SWI1]
doa10∆
  protein stability index: 3 ± 0.063
pdr5∆
  protein stability index: 3.04 ± 0.068
san1∆
  protein stability index: 2.84 ± 0.084
ubr1∆
  protein stability index: 2.98 ± 0.058

## PMPIITFLSEWGMEPLE [RPB2]
doa10∆
  protein stability index: 2.7 ± 0.06
pdr5∆
  protein stability index: 2.96 ± 0.09
san1∆
  protein stability index: 2.51 ± 0.08
ubr1∆
  protein stability index: 2.76 ± 0.071

## PMYKELWINYIKELLNI [POP4]
doa10∆
  protein stability index: 1.67 ± 0.19
pdr5∆
  protein stability index: 1.08 ± 0.11

## PNADDIRDSIPQMDSFD [DIS3]
doa10∆
  protein stability index: 2.79 ± 0.078
pdr5∆
  protein stability index: 2.86 ± 0.089
san1∆
  protein stability index: 3.14 ± 0.09
ubr1∆
  protein stability index: 3.06 ± 0.052

## PNGTKKAYVRLTADYDA [RPL25]
san1∆
  protein stability index: 3.07 ± 0.16
ubr1∆
  protein stability index: 3.34 ± 0.15

## PNHIPSVNPSNKPIKRM [SWP82]
doa10∆
  protein stability index: 2.87 ± 0.087
pdr5∆
  protein stability index: 2.96 ± 0.057
san1∆
  protein stability index: 2.75 ± 0.081
ubr1∆
  protein stability index: 3.02 ± 0.042

## PNIRELGVKNLGLCCLL [YCG1]
doa10∆
  protein stability index: 2.91 ± 0.25
san1∆
  protein stability index: 1.87 ± 0.21
ubr1∆
  protein stability index: 1.46 ± 0.061

## PNIRTMSGTTKRLNGKR [SSN2]
doa10∆
  protein stability index: 2.24 ± 0.23
pdr5∆
  protein stability index: 2.74 ± 0.22
san1∆
  protein stability index: 2.39 ± 0.17
ubr1∆
  protein stability index: 3.46 ± 0.11

## PNLLFSMCGFEVRILPR [PRP8]
doa10∆
  protein stability index: 2.41 ± 0.051
pdr5∆
  protein stability index: 1.9 ± 0.047
san1∆
  protein stability index: 2.25 ± 0.055
ubr1∆
  protein stability index: 2.27 ± 0.046

## PNVFDKDSYVRIANIEQ [YDL088C/ASM4]
doa10∆
  protein stability index: 3 ± 0.093
pdr5∆
  protein stability index: 3.09 ± 0.047
san1∆
  protein stability index: 3.04 ± 0.07
ubr1∆
  protein stability index: 3.22 ± 0.051

## PPETKLPYPTYWSDKKA [SNF5]
doa10∆
  protein stability index: 2.91 ± 0.085
pdr5∆
  protein stability index: 2.82 ± 0.062
san1∆
  protein stability index: 3.15 ± 0.056
ubr1∆
  protein stability index: 2.86 ± 0.053

Reference: the supplement of paper PMC9732359
